Measured values: patent publication US20250043302A1, “MUTATED HYDROXYPHENYLPYRUVATE DIOXYGENASE POLYPEPTIDE, AND CODING GENE AND USE THEREOF” (BEIJING DABEINONG BIOTECHNOLOGY CO., LTD., priority 2021, published 2025)

Key:
Format in all cases: in vivo
[1] = tested on: Arabidopsis thaliana T1 plants; assay: Mesotrione tolerance of transgenic Arabidopsis thaliana T1 plants (spray, bleached leaf area grade, damage score); parameters: Scores: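 damage score 0-100 computed as Σ(N×S)/(T×M)×100 over grades 0-3 with higher meaning more damage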; conditions: Arabidopsis thaliana T1 plants; for Grade 0 (classification and statistics of the grade of pesticide damage; number of plants) / Grade 1 (classification and statistics of the grade of pesticide damage; number of plants) / Grade 2 (classification and statistics of the grade of pesticide damage; number of plants) / Grade 3 (classification and statistics of the grade of pesticide damage; number of plants): 16 plants
How it was run: (§1)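 Damage graded 0–3 from the proportion of bleached leaf area 7 days after spraying. Plants were glufosinate-selected T1 lines, 18 days after sowing, plus vector and wild-type controls. Rates: mesotrione 52.5–420, isoxaflutole 35–280, topramezone 25–200 g ai/ha, with water (0×).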

[2] = tested on: Arabidopsis thaliana T1 plants; assay: Topramezone tolerance of transgenic Arabidopsis thaliana T1 plants (spray, bleached leaf area grade, damage score); conditions: 7 DAT, Table 4; for Classification and statistics of the grade of pesticide damage: Grade 0 / Classification and statistics of the grade of pesticide damage: Grade 1 / Classification and statistics of the grade of pesticide damage: Grade 2 / Classification and statistics of the grade of pesticide damage: Grade 3: number of plants; for Scores: pesticide damage score 0-100
How it was run: as §1

[3] = tested on: Arabidopsis thaliana T1 plants; assay: Isoxaflutole tolerance of transgenic Arabidopsis thaliana T1 plants (spray, bleached leaf area grade, damage score); parameters: Scores (pesticide damage): scale not given here; conditions: spray, Arabidopsis thaliana T1 plants; for Classification and statistics of the grade of pesticide damage: Grade 0 (number of plants) / Classification and statistics of the grade of pesticide damage: Grade 1 (number of plants) / Classification and statistics of the grade of pesticide damage: Grade 2 (number of plants) / Classification and statistics of the grade of pesticide damage: Grade 3 (number of plants): 16 plants
How it was run: as §1

[4] = isoxaflutole 35 g ai/ha (0.5x field concentration)
[5] = isoxaflutole 70 g ai/ha (1x field concentration)

B1: BnHPPDm-F383W-02: nucleotide sequence encoding Brassica napus HPPD with F383W; vector DBN11744 (nucleic acid)
DNA: ATGGGACATGAAAACGCGGCAGTGTGTGAAACTCAACAACATGATGACGCCGCCTCCCCGGGGTTTAAACTTGTCGGGTTCTCAAAATTTGTTAGGAAGAATCCAAAGTCTGACAAGTTCAAGGTGAAACGCTTCCACCACATCGAGTTCTGGTGCGGGGATGCAACAAATGTTTCACGCCGCTTTTCATGGGGACTAGGAATGAGGTTTAGCGCAAAGAGTGATCTCTCCACTGGTAATATGGTTCATGCGAGCTACTTGCTCACATCTGGAGACCTGAGATTCCTCTTCACCGCACCATATTCTCCCTCCCTGTCAGCTGGTGAAGCTCAGCCTTCAGCAACTGCAAGTATCCCTTCGTTTGATCATGCATCGTGCAGGTCTTTCTTCAGTTCACATGGACTCGGCGTCAGAGCAGTAGCGATCGAAGTAGAGGATGCTGAATCAGCTTTCTCCATATCTGTCGCCAACGGCGCGGTGCCTTCTTCTCCACCAAACGTCTTGAATGGTGCTGTTACCATTGCTGAGGTGAAGCTGTACGGAGATGTTGTTTTAAGATATGTTTCATATTACAATGGGACCGTTTCTTTTCTTCCCGGCTTTGAATCTGTTGATGATACTTCTTCCTTCCCTCTTGATTATGGGATCAGGCGGCTGGACCACGCCGTCGGCAACGTGCCGGAGTTAGGTCCTGCTTTGACATATCTTGCCGGCTTCACTGGATTCCATCAATTTGCAGAGTTTACGGCTGACGACGTGGGGACCGCGGAGAGTGGGCTGAACTCAGCAGTCTTGGCCAACAATGATGAAATGGTGCTCCTCCCCATCAATGAACCTGTGCATGGAACAAAGAGAAAGTCGCAGATTCAAACATTTTTAGAGCACAATGAGGGAGCTGGGCTACAGCACCTCGCATTGATGTCAGAAGATATTTTTCGAACGTTGAGGGAGATGCGGAAACGATCTGGTGTAGGCGGCTTTGACTTCATGCCATCCCCTCCGCCAACCTACTACAAGAACCTGAAGAAGAGGGTTGGAGACGTCCTTTCCGAGGAGCAAATTGAAGAATGTGAGGAGCTTGGAATTCTGGTGGACAGAGATGATCAAGGAACACTACTTCAGATCTTCACAAAACCATTGGGCGACAGGCCAACGATATGGATTGAGATCATTCAGCGCGTTGGATGCATGAAGCGTGATGAGGAAGGGAAGGTCTACCAGAGTGGCGGTTGTGGTGGATTTGGAAAAGGAAATTTTTCTGAGCTGTTCAAAAGCATAGAAGAGTATGAGAAAACATTGGAGGCCAAGCAGCTTGTTGGTTGA
modifications: BnHPPDm-F383W-02 Nucleotide Sequence
notes: vector DBN11744
[1]; mesotrione 52.5 g ai/ha
  Resistance evaluation: Non-resistant
  Scores: 100
  Grade 0 (classification and statistics of the grade of pesticide damage; number of plants): 0
  Grade 1 (classification and statistics of the grade of pesticide damage; number of plants): 0
  Grade 2 (classification and statistics of the grade of pesticide damage; number of plants): 0
  Grade 3 (classification and statistics of the grade of pesticide damage; number of plants): 16
[1]; mesotrione 105 g ai/ha
  Resistance evaluation: Non-resistant
  Scores: 100
  Grade 0 (classification and statistics of the grade of pesticide damage; number of plants): 0
  Grade 1 (classification and statistics of the grade of pesticide damage; number of plants): 0
  Grade 2 (classification and statistics of the grade of pesticide damage; number of plants): 0
  Grade 3 (classification and statistics of the grade of pesticide damage; number of plants): 16
[2]; topramezone 25 g ai/ha (1×)
  Classification and statistics of the grade of pesticide damage: Grade 0: 0
  Classification and statistics of the grade of pesticide damage: Grade 1: 3
  Classification and statistics of the grade of pesticide damage: Grade 2: 9
  Classification and statistics of the grade of pesticide damage: Grade 3: 4
  Scores: 69
  Resistance evaluation: non-resistant (non-resistant plants (scores 68-100))
[2]; topramezone 100 g ai/ha (4×)
  Classification and statistics of the grade of pesticide damage: Grade 0: 0
  Classification and statistics of the grade of pesticide damage: Grade 1: 0
  Classification and statistics of the grade of pesticide damage: Grade 2: 0
  Classification and statistics of the grade of pesticide damage: Grade 3: 16
  Scores: 100
  Resistance evaluation: non-resistant (non-resistant plants (scores 68-100))
[3]; [4]
  Resistance evaluation: Non-resistant
  Scores (pesticide damage): 94
  Classification and statistics of the grade of pesticide damage: Grade 0 (number of plants): 0
  Classification and statistics of the grade of pesticide damage: Grade 1 (number of plants): 0
  Classification and statistics of the grade of pesticide damage: Grade 2 (number of plants): 3
  Classification and statistics of the grade of pesticide damage: Grade 3 (number of plants): 13
[3]; [5]
  Resistance evaluation: Non-resistant
  Scores (pesticide damage): 100
  Classification and statistics of the grade of pesticide damage: Grade 0 (number of plants): 0
  Classification and statistics of the grade of pesticide damage: Grade 1 (number of plants): 0
  Classification and statistics of the grade of pesticide damage: Grade 2 (number of plants): 0
  Classification and statistics of the grade of pesticide damage: Grade 3 (number of plants): 16
